Reference: patent US20240376151A1, “STAPLED PEPTIDES AND METHODS THEREOF” (FOG PHARMACEUTICALS, INC., priority 2022, published 2024)
Numbered stars: 1 amine (or outer) side, 2 acyl side, 3 side chain; on linkers, the order of the positions; unused ones are H or OH. Bridge positions count the residues as written; N and C are the ends. Ends that are not written are not given here. Phenylene(1,4-NHCOCH2)2 = O=C(C[*:1])Nc1ccc(NC(=O)C[*:2])cc1

Key:
PPIA = target: T1, PPIA (Homo sapiens, UniProt P62937); experiment: Phage Library Screening with NGS, PPIA; assay type: binding
T1 construct: Full length PPIA (residues 1-165) with an N-terminal 6×his-yBBR-TEV tag; 6×his-yBBR-TEV (N); made in house; host or cells: E. coli BL21 (DE3) CodonPlus RIPL
T1 sequence (P62937 whole entry, the tested form may be a part): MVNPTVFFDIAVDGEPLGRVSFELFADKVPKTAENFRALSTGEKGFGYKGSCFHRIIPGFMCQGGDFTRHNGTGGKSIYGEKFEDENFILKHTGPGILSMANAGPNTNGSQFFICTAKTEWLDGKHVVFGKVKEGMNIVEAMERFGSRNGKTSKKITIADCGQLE

MDM2 = target: T2, MDM2 (Homo sapiens, UniProt Q00987); experiment: Naive Library Presenter Screening (phage, NGS), MDM2; assay type: binding; conditions: for interaction data, BLANK: Blank = Media only
T2 construct: made in house
T2 sequence (Q00987 25-109): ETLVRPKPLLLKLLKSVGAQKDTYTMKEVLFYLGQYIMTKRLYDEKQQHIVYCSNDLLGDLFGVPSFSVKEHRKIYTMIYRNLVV

[1] = target concentration 1000, first column
[2] = target concentration 1000, second column
[3] = MDM2 clusters (C82, C85), first column
[4] = MDM2 clusters (C82, C85), second column
[5] = MDM2 clusters (C82, C85), target concentration 10 nM
[6] = MDM2 clusters (C82, C85), target concentration 30 nM
[7] = MDM2 clusters (C82, C85), target concentration 100 nM
[8] = MDM2 clusters (C82, C85), target concentration 300 nM
[9] = MDM2 clusters (C82, C85), target concentration 1000 nM, first column
[10] = MDM2 clusters (C82, C85), target concentration 1000 nM, second column

Row | phage screen counts, Target Concentration 10 (PPIA) | phage screen counts, Target Concentration 30 (PPIA) | phage screen counts, Target Concentration 100 (PPIA) | phage screen counts, Target Concentration 300 (PPIA) | phage screen counts, Target Concentration 1000 (PPIA; [1]) | phage screen counts, Target Concentration 1000 (PPIA; [2]) | Sequence | also measured
1 | 0 | 52 | 273 | 416 | 616 | 456 | DPAQHDCHVAAYQCIWE | –
2 | 0 | 1 | 6 | 6 | 7 | 6 | DPARADCHVAAYWCYHR | –
3 | 0 | 0 | 4 | 5 | 6 | 6 | DPARSDCHVAAYWCYHQ | –
4 | 0 | 0 | 0 | 0 | 10 | 29 | PTCHVQAWYCW | –
5 | 0 | 0 | 0 | 4 | 6 | 35 | PDCHIQAYICH | –
6 | 0 | 7 | 116 | 208 | 201 | 121 | DPAAHDCHIAAYWCLNY | –
7 | 16 | 62 | 77 | 106 | 93 | 131 | DPAYYDCHIAAYFCRTQ | –
8 | 0 | 0 | 0 | 4 | 5 | 19 | PNCHLYAWECY | –
9 | 0 | 0 | 0 | 0 | 20 | 26 | PDCHIRAYMCN | –
10 | 0 | 0 | 1 | 47 | 47 | 115 | PDCHLNAYWCM | –
11 | 0 | 0 | 17 | 14 | 41 | 27 | DPARYSCHVAAYECILN | –
12 | 0 | 0 | 0 | 0 | 24 | 22 | PECHVEAYFCE | –
13 | 0 | 0 | 0 | 26 | 21 | 45 | PHDCHVNAWYC | –
14 | 0 | 0 | 0 | 1 | 12 | 12 | PNCHVEAWYCI | –
15 | 0 | 0 | 10 | 13 | 10 | 19 | DPATMNCHVAAYFCIVE | –
16 | 0 | 1 | 3 | 7 | 6 | 7 | DPARAACHVAAYWCYHQ | –

Row | phage screen counts, Target Concentration 10 (PPIA) | phage screen counts, Target Concentration 30 (PPIA) | phage screen counts, Target Concentration 100 (PPIA) | phage screen counts, Target Concentration 300 (PPIA) | phage screen counts, Target Concentration 1000 (PPIA; [1]) | phage screen counts, Target Concentration 1000 (PPIA; [2]) | Sequence | also measured
17 | 0 | 1 | 4 | 7 | 9 | 7 | DPARADCHVAAYWCYHE | –
18 | 0 | 0 | 4 | 5 | 8 | 7 | DPARADCHVAAYWCHHQ | –
19 | 0 | 0 | 10 | 19 | 25 | 18 | DPAQADCHIAAYLCLFD | –
20 | 0 | 0 | 0 | 3 | 25 | 5 | PDCHIASWFCS | –
21 | 0 | 0 | 0 | 12 | 18 | 26 | PTCHIDAWVCY | –
22 | 0 | 1 | 6 | 6 | 11 | 7 | DPARADCRVAAYWCYHQ | –
23 | 0 | 0 | 21 | 27 | 125 | 8 | DPAQLNCHVAAFFCFQS | –
24 | 0 | 0 | 1 | 8 | 10 | 7 | PNCHVMAYWCW | –
25 | 0 | 0 | 3 | 38 | 54 | 44 | PDCHVAAYICY | –
26 | 0 | 3 | 13 | 16 | 20 | 21 | DPARADCQVAAYWCYHQ | –
27 | 0 | 0 | 0 | 14 | 46 | 22 | PFCHIEAYYCW | –
28 | 0 | 5 | 13 | 14 | 18 | 25 | DPARTDCHVAAYWCYHQ | –
29 | 0 | 0 | 1 | 5 | 8 | 18 | PDCHIYAFYCL | –
30 | – | – | – | – | – | – | DPADIVCQDAAFQCFWW (linker 7-14 via Phenylene(1,4-NHCOCH2)2 (inferred)) | interaction data, BLANK (MDM2; [3]): 0; interaction data, BLANK (MDM2; [4]): 0; interaction data at Target Concentration 10 (MDM2; [5]): 0; interaction data at Target Concentration 30 (MDM2; [6]): 1; interaction data at Target Concentration 100 (MDM2; [7]): 12; interaction data at Target Concentration 300 (MDM2; [8]): 33; interaction data at Target Concentration 1000 (MDM2; [9]): 46; interaction data at Target Concentration 1000 (MDM2; [10]): 18
31 | – | – | – | – | – | – | DPAQHHCQQAAFWCQWW (DPAQHHCQQAAFWCQWW-NH2; linker 7-14 via Phenylene(1,4-NHCOCH2)2 (inferred)) | interaction data, BLANK (MDM2; [3]): 0; interaction data, BLANK (MDM2; [4]): 0; interaction data at Target Concentration 10 (MDM2; [5]): 0; interaction data at Target Concentration 30 (MDM2; [6]): 0; interaction data at Target Concentration 100 (MDM2; [7]): 13; interaction data at Target Concentration 300 (MDM2; [8]): 13; interaction data at Target Concentration 1000 (MDM2; [9]): 36; interaction data at Target Concentration 1000 (MDM2; [10]): 18
32 | – | – | – | – | – | – | DPAFDSCFSAAWDCMYW (linker 7-14 via Phenylene(1,4-NHCOCH2)2 (inferred)) | interaction data at Target Concentration 10 (MDM2; MDM2 target concentration 10 nM): 3; interaction data at Target Concentration 30 (MDM2; MDM2 target concentration 30 nM): 0; interaction data at Target Concentration 100 (MDM2; MDM2 target concentration 100 nM): 27; interaction data at Target Concentration 300 (MDM2; MDM2 target concentration 300 nM): 92; interaction data at Target Concentration 1000 (MDM2; MDM2 target concentration 1000 nM, first column): 65; interaction data at Target Concentration 1000 (MDM2; MDM2 target concentration 1000 nM, second column): 84
